# In the RNAGym collection of RNA variant scans (doi:10.1093/nar/gkz1192):
# B1: CPEB3 Ribozyme (parent)
# chain: UAACAGGGGGCCACAGCAGAAGCGUUCACGUCGCAGCCCCUGUCAGAUUCUGGUGAAUCUGCGAAUUCUGCUGUAUAUCUC
# Variants of: B1
# Assay: self-cleavage, relative activity (ratio to wild type); higher = more cleavage; in vitro, sequencing
# Procedure, shortened: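 After error-prone PCR and barcoding, CPEB3 ribozyme mutant libraries were transcribed with T7 RNA polymerase at 37°C for 5 hours, then given 15 min with DNase I before an EDTA stop, and they cleaved during both steps. Reverse transcription with template switching preceded Illumina sequencing. Relative activity divides a variant's cleaved/total read fraction by the unmutated ribozyme's. At least 5 reads were required per variant, and three batches were averaged.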
row,Variant,self-cleavage
1,C17G A56G,0.38
2,C17U C68U,0.51
3,C17A U31A,0.15
4,C17G U58C,0.22
5,C17A A65U,0.15
6,C17A U67C,0.44
7,G16U A47G,0.32
8,G16U A47U,0.16
9,C17U U31C,0.42
10,G16U A35U,0.23
11,A18C U80C,0.54
12,A18C U80A,0.54
13,C17G U48C,0.2
14,A18C A28G,0.29
15,A18C A28U,0.37
16,A18C A28C,0.43
17,G16C G36U,0.17
18,A18C U78C,0.4
19,G16C A20G,0.11
20,C17A U80G,0.23
21,C17A U80C,0.24
22,G16C C50U,0.18
23,G16U G36A,0.37
24,G16U C39U,0.46

row,Variant,self-cleavage
1,C17G U31C,0.28
2,C17G U41G,0.08
3,C17G U41A,0.25
4,C17U C37A,0.09
5,C17U G73A,1.09
6,C17U G55A,0.38
7,G16U U49G,0.14
8,G16U U49C,0.1
9,A18C U58A,0.21
10,A18C U58C,0.3
11,G16C U66C,0.16
12,G16U U67A,0.19
13,G16U U67C,0.09
14,C17U C38A,0.39
15,C17U A64U,0.3
16,C17U A64G,0.52
17,G16U U25A,0.2
18,G16U G24A,0.19
19,G16U G24U,0.11
20,A18C A65U,0.16
21,A18C A65G,0.26
22,A18C C40A,0.34
23,C17A U66C,0.07
24,C17U U67C,0.22

row,Variant,self-cleavage
1,C17G A18G,0.11
2,C17G A18U,0.4
3,C17A U78C,0.21
4,A18C U60A,0.23
5,A18C U60C,0.28
6,A18C U54C,0.32
7,A18C U54A,0.37
8,A18C C71A,0.09
9,G16U C32A,0.2
10,G16A U60C,0.19
11,C17U U54C,0.66
12,G16C A77G,0.21
13,C17U U78C,0.63
14,G16C C23A,0.5
15,C17U U41A,0.24
16,C17U U41C,0.32
17,C17U U41G,0.37
18,A18G,0.71
19,A18C,0.41
20,C17G U72A,0.21
21,C17G U72C,0.31
22,C17A A75U,0.2
23,G16C U72A,0.3
24,A18C C62U,0.39

row,Variant,self-cleavage
1,G16C U60C,0.2
2,G16C U60A,0.29
3,C17U U49C,0.15
4,G16C A21U,0.1
5,G16C A21G,0.32
6,A18G A45G,0.46
7,A18G A45C,0.3
8,A18G A45U,0.35
9,G16C A28U,0.24
10,G16C A28G,0.15
11,G16C U67C,0.42
12,G16A U78A,0.52
13,G16A U78C,0.59
14,A18G A21C,0.4
15,A18G A21G,0.4
16,A18G A21U,0.33
17,G16U C81U,0.35
18,A18C U72G,0.12
19,A18C U72A,0.16
20,A18C U72C,0.46
21,C17U,0.73
22,C17G,0.35
23,C17A,0.32
24,G16C G22C,0.07

row,Variant,self-cleavage
1,C17G U26A,0.29
2,C17G U26C,0.16
3,C17A U72G,0.16
4,C17G U25A,0.09
5,C17G U25G,0.06
6,C17G U25C,0.11
7,A18G A64U,0.29
8,A18G A64G,0.43
9,G16U A45U,0.21
10,G16U A45G,0.21
11,A18C U31A,0.19
12,A18C U31C,0.28
13,A18C C34U,0.22
14,A18C U26C,0.44
15,A18C C68A,0.18
16,C17G C79U,0.27
17,C17A A64G,0.24
18,G16A U69G,0.2
19,G16A U69C,0.16
20,G16A U69A,0.19
21,G16U U78C,0.27
22,C17U A56G,0.47
23,C17U A56U,0.22
24,C17A U43C,0.32

row,Variant,self-cleavage
1,A18C U48A,0.2
2,A18C U48C,0.25
3,C17A A18G,0.48
4,C17A A18U,0.11
5,C17U U72C,0.74
6,C17U U72G,0.4
7,C17U U72A,0.21
8,C17U C71A,0.15
9,A18C U51A,0.42
10,A18C U51C,0.36
11,C17G A28G,0.16
12,C17G A28C,0.21
13,C17U U74C,0.97
14,C17U U74A,1.02
15,G16C U51G,0.52
16,G16C U51A,0.11
17,A18C A77G,0.26
18,A18C U66C,0.21
19,G16A U74C,0.77
20,G16A U74A,1.21
21,G16C C37U,0.16
22,G16C A35G,0.83
23,G16C U43C,0.21
24,C17G C34G,0.36

row,Variant,self-cleavage
1,G16C U31C,0.18
2,G16U,0.42
3,G16C,0.35
4,A18G A20U,0.27
5,A18G A20G,0.49
6,G16C U49C,0.08
7,G16U U76A,0.33
8,G16U U43C,0.15
9,G16C U48G,0.18
10,C17G U78C,0.48
11,C17A A45U,0.22
12,C17U U51G,0.74
13,C17U U51C,0.56
14,G16C U26C,0.23
15,G16C U26A,0.3
16,C17U A18G,0.23
17,A18G A65G,0.34
18,C17U A35G,1.26
19,C17U A47U,0.33
20,A18C C39A,0.41
21,C17G A57G,0.51
22,C17U U26A,0.6
23,C17U U26C,0.29
